These results are taken from patent US20230121197A1, “ANTIBODIES SPECIFICALLY BINDING THE CARBOXYMETHYLATED CATALYTIC SUBUNIT OF PROTEIN PHOSPHATASE 2A” (Medizinische Universität Wien, priority 2020, published 2023).

The test deals with T1, HA-tagged yeast PP2Ac (PPH21) (Saccharomyces cerevisiae, UniProt P23594).
T1 construct: expressed in transfected cells; host or cells: yeast BY4741 (wildtype, ppe1Δ, ppm1Δ)
The test can be described thus: Western blot of yeast BY4741 strain lysates (wt, ppe1Δ, ppm1Δ, NaOH). It is filed as binding. The source says:
Yeast strain BY4741 expressing HA-tagged yeast PP2Ac (PPH21) was used as a background. Of note, the 6 C-terminal amino acids of mammalian/human PP2Ac are identical to the yeast PP2A catalytic subunit PPH21. The BY4741 wildtype (WT) strain contained carboxymethylated PP2Ac and non-carboxymethylated PP2Ac. The BY4741 ppe1Δ strain contained high levels of carboxymethylated PP2Ac because the ppe1 gene was deleted. The BY4741 ppm1Δ strain lacked carboxymethylated PP2Ac because the ppm1 gene was deleted. Said yeast strains were further used for the characterization of monoclonal antibodies, i.e. 7C10-C5, as described further below. […]
Yeast cells were grown at 30° C. to exponential growth phase in drop-out complete medium (2.3 g/l Bacto yeast nitrogen base [Difco, 233520], 20 mg/l adenine, 20 mg/l L-arginine, 15 mg/l L-tyrosine, 15 mg/l L-isoleucine, 25 mg/l L-phenylalanine, 50 mg/l L-glutamic acid, 50 mg/l L-aspartic acid, 100 mg/l L-threonine, 200 mg/l L-serine, 75 mg/l L-valine, 75 mg/l L-methionine, 90 mg/l L-lysine, 20 mg/l uracil, 30 mg/l L-histidine, 0.05 M ammoniumsulfate) lacking L-leucine and containing 2% w/v glucose. Yeast cells were collected by centrifugation at 3,500 rpm at 4° C. in a Beckmann GS-6R centrifuge, washed with ice-cold water and the optical density at 600 nm (0D^600) was measured in a Hitachi U-2000 spectrophotometer. […]
(A western blot detects proteins with antibodies after separation by electrophoresis.)

T1 sequence (P23594 whole entry): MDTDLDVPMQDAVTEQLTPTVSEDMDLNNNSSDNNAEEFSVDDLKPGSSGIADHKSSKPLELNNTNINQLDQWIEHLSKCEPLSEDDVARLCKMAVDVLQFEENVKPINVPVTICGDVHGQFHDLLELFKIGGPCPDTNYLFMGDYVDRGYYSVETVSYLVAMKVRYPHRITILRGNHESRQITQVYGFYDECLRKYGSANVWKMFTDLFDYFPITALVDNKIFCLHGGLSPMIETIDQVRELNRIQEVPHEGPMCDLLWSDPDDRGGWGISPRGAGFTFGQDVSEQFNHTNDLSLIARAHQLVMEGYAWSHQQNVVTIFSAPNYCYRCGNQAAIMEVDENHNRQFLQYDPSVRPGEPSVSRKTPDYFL

B1: 7C10-C5: α-carboxymethylation specific mouse monoclonal IgG1 antibody from single clone hybridoma 7C10-C5 (DSM ACC3350) (antibody)
heavy: MYRMQLLSCIALSLALVTNSDVQLQESGPGLVKPSQSLSLTCSVTGYSITSGYYWNWIRQFPGNKLEWMGYISYDGSNNYNPSLKNRISITRDTSKNQFFLKLNSVTTEDTATYYCAGRFAYWGQGTLVTVSAAKTTAPSVYPLAPVCGDTTGSSVTLGCLVKGYFPEPVTLTWNSGSLSSGVHTFPAVLQSDLYTLSSSVTVTSSTWPSQSITCNVAHPASSTKVDKKIEPRGPTIKPCPPCKCPAPNLLGGPSVFIFPPKIKDVLMISLSPIVTCVVVDVSEDDPDVQISWFVNNVEVHTAQTQTHREDYNSTLRVVSALPIQHQDWMSGKEFKCKVNNKDLPAPIERTISKPKGSVRAPQVYVLPPPEEEMTKKQVTLTCMVTDFMPEDIYVEWTNNGKTELNYKNTEPVLDSDGSYFMYSKLRVEKKNWVERNSYSCSVVHEGLHNHHTTKSFSRTPGK
light: MDMRVPAQLLGLLLLWLSGARCDVLMTQTPLSLPVSLGDQASISCRSSQSIVHSNGNTYLEWYLQKPGQSPKLLIYKVSNRFSGVPDRFSGSGSGTDFTLKINRVEAEDLGVYYCFQGSHVPWTFGGGTKLEIKADAAPTVSIFPPSSEQLTSGGASVVCFLNNFYPKDINVKWKIDGSERQNGVLNSWTDQDSKDSTYSMSSTLTLTKDEYERHNSYTCEATHKTSTSPIVKSFNRNEC
modifications: Amino acid sequence of the recombinant 7C10-C5 heavy chain; Amino acid sequence of the recombinant 7C10-C5 light chain
For the molecule B1, the “detection of PP2Ac in ppe1Δ (carboxymethylated) versus ppm1Δ / NaOH treated (non-carboxymethylated) lysates” value is listed as “only detected carboxymethylated PP2Ac”.

B2: 7C10-C5 monoclonal antibody (antibody, V domains shown)
VH: DVQLQESGPGLVKPSQSLSLTCSVTGYSITSGYYWNWIRQFPGNKLEWMGYISYDGSNNYNPSLKNRISITRDTSKNQFFLKLNSVTTEDTATYYCAGRFAYWGQGTLVTVSA
VL: DVLMTQTPLSLPVSLGDQASISCRSSQSIVHSNGNTYLEWYLQKPGQSPKLLIYKVSNRFSGVPDRFSGSGSGTDFTLKINRVEAEDLGVYYCFQGSHVPWTFGGGTKLEIK
notes: Used as hybridoma culture supernatant (ELISA, Western blot, IHC) or at 50 µg/mL (SPR); also called 7C10 X63; clone 7C10-C5
Regarding B2, the “detection of PP2Ac in ppe1Δ (carboxymethylated) versus ppm1Δ / NaOH treated (non-carboxymethylated) lysates” value is “detected PP2Ac only in the BY4741 ppe1Δ strain”.
